Measurements reported in patent US20140073575.

T1: His10-tagged human collagen III construct, P02461
T1 chain: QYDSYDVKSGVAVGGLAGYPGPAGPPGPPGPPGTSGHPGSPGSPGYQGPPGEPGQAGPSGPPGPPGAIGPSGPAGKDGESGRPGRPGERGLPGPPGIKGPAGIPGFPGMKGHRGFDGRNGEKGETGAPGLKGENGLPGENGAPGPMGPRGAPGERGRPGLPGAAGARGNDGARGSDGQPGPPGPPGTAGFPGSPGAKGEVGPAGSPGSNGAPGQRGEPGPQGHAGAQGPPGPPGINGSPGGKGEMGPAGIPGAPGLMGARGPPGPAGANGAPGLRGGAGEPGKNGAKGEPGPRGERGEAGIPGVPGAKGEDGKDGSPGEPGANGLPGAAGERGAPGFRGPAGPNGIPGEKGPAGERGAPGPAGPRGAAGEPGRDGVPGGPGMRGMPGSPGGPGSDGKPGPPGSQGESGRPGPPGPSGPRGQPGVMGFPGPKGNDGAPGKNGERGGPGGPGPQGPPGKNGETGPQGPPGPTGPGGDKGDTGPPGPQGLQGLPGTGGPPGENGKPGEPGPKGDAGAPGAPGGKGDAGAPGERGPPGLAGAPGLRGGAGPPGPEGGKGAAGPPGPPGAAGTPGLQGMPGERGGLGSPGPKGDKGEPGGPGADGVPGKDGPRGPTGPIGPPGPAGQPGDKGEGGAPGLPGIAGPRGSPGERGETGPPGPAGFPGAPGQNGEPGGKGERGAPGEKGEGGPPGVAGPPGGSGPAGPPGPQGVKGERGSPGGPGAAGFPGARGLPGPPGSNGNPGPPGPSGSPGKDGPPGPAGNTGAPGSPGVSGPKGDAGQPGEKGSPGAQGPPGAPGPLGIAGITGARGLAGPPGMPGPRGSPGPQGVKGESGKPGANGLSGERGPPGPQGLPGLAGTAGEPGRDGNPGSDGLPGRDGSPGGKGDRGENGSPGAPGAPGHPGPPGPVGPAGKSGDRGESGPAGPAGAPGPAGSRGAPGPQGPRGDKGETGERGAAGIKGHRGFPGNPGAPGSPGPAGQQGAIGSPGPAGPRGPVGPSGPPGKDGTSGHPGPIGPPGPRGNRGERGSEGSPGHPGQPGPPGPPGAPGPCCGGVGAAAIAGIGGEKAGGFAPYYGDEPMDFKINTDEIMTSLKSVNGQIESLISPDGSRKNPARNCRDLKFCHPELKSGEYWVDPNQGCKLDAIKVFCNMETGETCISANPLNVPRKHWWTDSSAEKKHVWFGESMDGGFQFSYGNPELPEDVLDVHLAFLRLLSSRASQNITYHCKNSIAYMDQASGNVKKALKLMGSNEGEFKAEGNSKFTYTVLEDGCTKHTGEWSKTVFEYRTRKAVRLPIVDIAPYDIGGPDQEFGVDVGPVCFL

T2: (GDK)4 acceptor peptide
T2 chain: GDKGDKGDKGDK

T3: MimiD peptide GTKGETGLKGII
T3 chain: GTKGETGLKGII

B1: Mimivirus prolyl hydroxylase L593_short (protein)
chain: MVLSKSCVSHFRNVGSLNSRDVNLKDDFSYANIDDPYNKPFVLNNLINPTKCQEIMQFANGKLFDSQVLSGTDKNIRNSQQMWISKNNPMVKPIFENICRQFNVPFDNAEDLQVVRYLPNQYYNEHHDSCCDSSKQCSEFIERGGQRILTVLIYLNNEFSDGHTYFPNLNQKFKPKTGDALVFYPLANNSNKCHPYSLHAGMPVTSGEKWIANLWFRERKFS
B2: Mimivirus prolyl hydroxylase L593_long (protein)
chain: MKTVTIITIIVVIIVVILIIMVLSKSCVSHFRNVGSLNSRDVNLKDDFSYANIDDPYNKPFVLNNLINPTKCQEIMQFANGKLFDSQVLSGTDKNIRNSQQMWISKNNPMVKPIFENICRQFNVPFDNAEDLQVVRYLPNQYYNEHHDSCCDSSKQCSEFIERGGQRILTVLIYLNNEFSDGHTYFPNLNQKFKPKTGDALVFYPLANNSNKCHPYSLHAGMPVTSGEKWIANLWFRERKFS
B3: Mimivirus lysyl hydroxylase L230 (protein)
chain: MISRTYVINLARRPDKKDRILAEFLKLKEKGVELNCVIFEAVDGNNPEHLSRFNFKIPNWTDLNSGKPMTNGEVGCALSHWSVWKDVVDCVENGTLDKDCRILVLEDDVVFLDNFMERYQTYTSEITYNCDLLYLHRKPLNPYTETKISTHIVKPNKSYWACAYVITYQCAKKFMNANYLENLIPSDEFIPIMHGCNVYGFEKLFSNCEKIDCYAVQPSLVKLTSNAFNDSETFHSGSYVPSNKFNFDTDKQFRIVYIGPTKGNSFHRFTEYCKLYLLPYKVIDEKETNDFVSLRSELQSLSEQDLNTTLMLVVSVNHNDFCNTIPCAPTNEFIDKYKQLTTDTNSIVSAVQNGTNKTMFIGWANKISEFINHYHQKLTESNAETDINLANLLLISSISSDFNCVVEDVEGNLFQLINEESDIVFSTTTSRVNNKLGKTPSVLYANSDSSVIVLNKVENYTGYGWNEYYGYHVYPVKFDVLPKIYLSIRIVKNANVTKIAETLDYPKELITVSISRSEHDSFYQADIQKFLLSGADYYFYISGDCIITRPTILKELLELNKDFVGPLMRKGTESWTNYWGDIDPSNGYYKRSFDYFDIIGRDRVGCWNVPYLASVYLIKKSVIEQVPNLFTENSHMWNGSNIDMRLCHNLRKNNVFMYLSNLRPYGHIDDSINLEVLSGVPTEVTLYDLPTRKEEWEKKYLHPEFLSHLQNFKDFDYTEICNDVYSFPLFTPAFCKEVIEVMDKANLWSKGGDSYFDPRIGGVESYPTQDTQLYEVGLDKQWHYVVFNYVAPFVRHLYNNYKTKDINLAFVVKYDMERQSELAPHHDSSTYTLNIALNEYGKEYTAGGCEFIRHKFIWQGQKVGYATIHAGKLLAYHRALPITSGKRYILVSFVN

Tests used:
[1] = biological target: T1, His10-tagged human collagen III …
(GDK)4 acceptor peptide = biological target: T2, (GDK)4 acceptor peptide
[2] = biological target: T3, MimiD peptide GTKGETGLKGII

Protein | hydroxyproline in collagen III after co-expression in E. coli (amino acid analysis by HPLC, tandem mass spectrometry of tryptic peptides) [1] | prolyl hydroxylase activity ([14C]-CO2 production from [14C]-2-oxoglutarate) ((GPP)7 acceptor peptide) | hydroxylysine in collagen III after co-expression in E. coli (amino acid analysis by HPLC) [1] | lysyl hydroxylase activity ((GDK)4 acceptor peptide) | lysyl hydroxylase activity [2]
B1 | the amino acid hydroxyproline was clearly detected in the human collagen III extract when the Mimivirus L593 protein was co-expressed | the short form of L593 yielded prolyl hydroxylase activity in the range of 600 pmol/min/mg protein | – | – | –
B2 | – | Both short and long forms of L593 are active as prolyl hydroxylases, but the short form has a higher specific activity than the long form | – | – | –
B3 | – | – | A peak corresponding to hydroxylysine was detected in collagen III co-expressed with L230 but not in collagen expressed alone in E. coli | The lysyl hydroxylase activity was highest towards the (GDK)4 peptide and the GTKGETGLKGII peptide derived from a Mimivirus collagen sequence | The lysyl hydroxylase activity was highest towards the (GDK)4 peptide and the GTKGETGLKGII peptide derived from a Mimivirus collagen sequence
